{"source": "the DeepSol protein solubility set", "data": [{"test": "soluble on expression in E. coli; label from the status in PepcDB or PDB records", "values": [{"sequence": "HHHHHHHHHHMLPTPYVKCDYDKVYEPAEDSFLILDCLEKEHDFLKQKFGNRLAIVCEIGSGSGIVTTFLMQNKIIPQENSIHLAVDINPWALEATLDTAKLNSCKSSFLEVIQADLNSSIRNNQVDVLIFNPPYVPAECVPDVPGSREEADQWLDLALLGGKDGMAITDKLLRQLEQILSPDGVAYILFCARNKPKEVIKRFVDTYKWNVKLIETRKAGWEVLSVYSFTR", "soluble on expression in E. coli": "not soluble"}, {"sequence": "MSTRPTTDKVKEAIFNMIGPYFSGGNGLDLFAGSGGLGIEALSRGIERVIFVDHDRKAVQTVRKNVAACGLEKRAEIYCNDAERALKAVAKRGLRFAVIFLDPPYKEKQWPTLLSSIVERQLLEPHGVVVAEHSAEAELPEEVGGLTRWKRETYGITGVTIYRWEGDGSDGEHCGLPREL", "soluble on expression in E. coli": "not soluble"}, {"sequence": "MYETYHSGWIECITGSMFSGKSEELIRRLRRGIYAKQKVVVFKPAIDDRYHKEKVVSHNGNAIEAINISKASEIMTHNLTNVDVIGIDEVQFFDDEIVSIVEKLSADGHRVIVAGLDMDFRGEPFEPMPKLMAVSEQVTKLQAVCAVCGSSSSRTQRLINGKPAKIDDPIILVGANESYEPRCRAHHIVAPSDNNKEEL", "soluble on expression in E. coli": "not soluble"}, {"sequence": "MFVIGIPTLNEADNISRLVKQIDEYAVNLGKEIIIINSDSKSTDGTPQIFLETKTYNTKVSIVSEAKGKGYNVRNIFEYAINHVPNFSGLILIDGDVVSMKKMWLEKMFIAIESGNDLIIPNYARKSFEGNATNHFIYPMLVKIFKRDMPYQCISGDFGFSRGLIKDLTLKCNWHKYTLGYGIDIFLTLTAILKSYKIKEIDLQSKIHKKSFEKIEKIFLEVSQSFFETINDNSLNQDKLRLNINFESHSRQFIKSSDILSSNDIENLKLRALFLLQEEKQYLHGLSEVEWDGILSNTINNIYRYSSEEHSLYLLPLYLLRVYNYLKYN", "soluble on expression in E. coli": "not soluble"}, {"sequence": "MSCHTSCIDHTSALIHCADEVFEKPLPHLFEAAVFLMGFTLWGKLEFNQRDGFLDCPHGDRVCGSGMMSKVDILQLTGHFFTNFNGRDYIENIQNLFDNQLASYHIRNQFLIGIQRLGHRKLLIAF", "soluble on expression in E. coli": "not soluble"}, {"sequence": "MGSSHHHHHHSSGLVPRGSHMSGALKENSGKPSEVEYTHFKDLQALEMERGRLYETIVVTWDDSMVGNAAPIGVLCTGDDTVTLYLYQGTRTVENVLNNGRFTVNVTLDPLIFTDSTLGDLEEDMFSHYRDFLHLRGADAFFTAEVVSVKKLVKRDRFGESELHVVKARAGDVMRAESFRMALNRGIYAVIESLIAYTRAEFSDPLVLRERIAEMNRVARKVGGPREKEAMRRIIQALESKIS", "soluble on expression in E. coli": "soluble"}, {"sequence": "MAIHVEHVGVLERAREVSRLEDIITEDNEDIEAEMPKMRDDPAGKEARFLQATDEMSAALTQFMKKKIYEEQLANFLDGEEYVLEDQPIEKTDKVMEALKAATTHDYEVYSFAKKLFPDESDLVVVLRAILRKKQISENVRLNAEALLRKVNQETTKKFINSGINSALKAKLFGQALSLNPKLLRASYRQFLMAEDDAVDTYVEWIGSYGYQNRMLVTKFIKETLFSDINALDASCSSLEFGMFLNKLSQLLSLQSAEALFLKTLMNNPIIKKFISAEDYWIFFLISLIKFPETAEELLNNALVTLPADANYKDKTLLLKAIYSGCTNLPFSLFINNEQLLEIRECCKQAIKVTFAAELFDTQNCNKKQNKKPWKKVMFNV", "soluble on expression in E. coli": "not soluble"}, {"sequence": "MTESTLAFVFPGQGSQSLGMLAELSELHPQIRETFAEASEGAGVDLWALSQGGPEEMLNRTEYTQPALLAAGVAVWRLWTAQRGQRPALLAGHSLGEYTALVAAGVLSLHDGAHLVRLRGQFMQAAAPAGVGAMAAVLGAEDAVVLEVCAEAAGSQVVVPANFNSPGQIVIGGDAAAVDRALALLAERGVRKAVKLAVSVPSHTPLMRDAANQLGEAMAGLSWHAPQIPVVQNVDARVHDGSAAIRQALVEQLYLPVQWTGCVQALASQGITRIAECGPGKVLSGLIKRIDKSLDARPLATPADYAGALDAWAH", "soluble on expression in E. coli": "soluble"}, {"sequence": "MGSDKIHHHHHHMIATTIAMDFCQTVTPSEIATVIDSYARGWFLMADEDSSDLGWYRSRDRCLIPLDNRFRYPRSLRRVLNQQRFEFAISRDFLGTIAGCADRPSTWISDELAEIYQQLQRYGWALSWEAWQGDRLVGGILGVAIGSLFIGESMFYHEPEASKAALVTLVQALQQGGWQVFDVQLTNPHLERFGSFCVSDRQYSAQIQTAIARPAKLVTPTGDRFASQPHSSAASDHG", "soluble on expression in E. coli": "not soluble"}, {"sequence": "MGSDKIHHHHHHMTSNGQQGKPNLPEKDNLPRELGTQRINSPIARMGMFGAKTTGDTSGYGRLRVYRHVPAAAQRPYSDPSDPRTAYFDEVADALERSLKEIGTPYDTAISRVVVDRGEITFHVQREHLLDVATRLRDDPALRFELCLGVTGVHYPEDEGNELHAVYALRSITHNYEIRLEVSCPDSDPHIPSIVSVYPTNDWHEREAWDFFGIIFDGHPALTRIHMPDDWHGHPQRKDYPLGGIPVEYRGAKVPPPDQRRSYA", "soluble on expression in E. coli": "not soluble"}, {"sequence": "MITNDHDRRKQISVRGIAQVENVSNIKKAFNRHLHFSIIKDRNVATDRDYYFALANTVRDHLVSRWIRTQQHYYDKDPKRVYYLSLEFYMGRTLSNTMMNLGIQATVDEALYQLGLDIEELQEIEEDAGLGNGGLGRLAACFLDSMATLGIPAYGYGLRYEYGIFKQLIRDGWQIEEPDDWLRFGNPWEKARPEYMLPVNFYGKVVKEDGKSKWIDTQVVFAMPYDTPVPGYKNNIVNTLRLWSAKAENHFHLKFFNDGDYVQAVMDRNLSENITRVLYPNDNMFLGKELRLKQQYFLVAATLQDIIRRFKSSIYGNREAVRVNFETFPDKVAIQLNDTHPSIGIPELIRLLIDVEGLTWDQAWDICIKTYAYTNHTLLPEALERWPVSLMQNLLPRHLEIIYEINQKFMNTISQRFPGDFDRMRRMSIVEEADQFGEKRINMAHLCIVASHAINGVAALHSDLLKSSTFRDFYEFYPDRFQNKTNGITPRRWLLLSNPSLADLIVEKIGESWITNLDELQKLKEYANDAGFLDSIRRVKLENKQQVAQYLSDEYNVNVNAASLFDVHVKRIHEYKRQLLNILHVIALYNRIKENPNIDMVKRTVLYGGKAAPGYHMAKQIIRLITAVAEQVNNDAIVGDRLKVIFLENYRVSMAEKIIPASDLSEQISTAGTEASGTGNMKFMLNGALTIGTLDGANVEMAEEMGDENIFIFGMNVEEVEALTKRGYSSQEFIDKSPMLKQIIEQIEGGMFTPEDPDQLKDLSNMLRYHDRFMVCADFDAFIEAQDKVSATFRDQEKWSRMALYNIASTGKFSTDRTITEYAREIWGIDQFESSLPAPYENEKSE", "soluble on expression in E. coli": "not soluble"}, {"sequence": "MGSDKIHHHHHHLDDLSEFVDQVPLLDHHCHFLIDGKVPNRDDRLAQVSTEADKDYPLADTKNRLAYHGFLALAKEFALDANNPLAAMNDPGYATYNHRIFGHFHFKELLIDTGFVPDDPILDLDQTAELVGIPVKAIYRLETHAEDFMLEHDNFAAWWQAFSNDVKQAKAHGFVGFKSIAAYRVGLHLEPVNVIEAAAGFDTWKHSGEKRLTSKPLIDYMLYHVAPFIIAQDMPLQFHVGYGDADTDMYLGNPLLMRDYLKAFTKKGLKVVLLHCYPYHREAGYLASVFPNLYFDISLLDNLGPSGASRVFNEAVELAPYTRILFASDASTYPEMYGLAARQFKQALVAHFNQLPFVDLAQKKAWINAICWQTSAKLYHQERELRV", "soluble on expression in E. coli": "not soluble"}, {"sequence": "MGSSHHHHHHSSGRENLYFQGMQCNTSIEDGLDGGDITFPSYSPEAEAQNRFLPRSEFPSVRQLVISKQKSRRRREENVFVGKMEDVLVKWRPPASSHRGAIEAINGTHPYQLSTAQFNSRRSDPFGSTKRDESVRSIVESFTDWWKRNSKMFFRDEEEGVRTEHSASQDDQELQLFEEDLFSFHLSPNDMSTRNSEHQVQTPVLFPYEAPTRTKQNPAERKVIEIGDGEELSIYRDVYSNPIPVSYLDTLNLNHSMSVRQTQQQQQQRQQQQYVDSSSAFQCCTDSNWARIFFCHHD", "soluble on expression in E. coli": "soluble"}, {"sequence": "GDSFYIRTHFEYEKESPYGLSFNKGEVFRVVDTLYNGKLGSWLAIRIGKNHKEVERGIIPNKNRAEQLASVQYVQTKFPAYERVVLREAGFLRPVTIFGPIADVAREKLAREEPDIYQIAKSEPRDAGTDQRSSGIIRLHTIKQIIDQDKHALLDVTPNAVDRLNYAQWYPIVVFLNPDSKQGVKTMRMRLCPESRKSARKLYERSHKLRKNNHHLFTTTINLNSMNDGWYGALKEAIQQQQNQLVWVSEG", "soluble on expression in E. coli": "soluble"}]}]}
